Measured values: US20130295090A1 (US Dept. of Health and Human Services, published 2013)
Like-named read-outs stand apart in the source and are kept apart here.

What was measured:
[1] = target: T1, JEV strain SA14-14-2 envelope (E) protein on virions (Japanese encephalitis virus strain …, UniProt P0DOH7 295-794); experiment: cell-based or functional assay
[2] = target: T1, JEV strain SA14-14-2 envelope (E) …; experiment: cell-based or functional assay; remark: listed apart in the source
[3] = target: E protein of wild type JEV strain JE 1991 (genotype I) (Japanese encephalitis virus strain JE …); experiment: cell-based or functional assay
[4] = target: E protein of wild type JEV strain JKT 9092 (genotype IV) (Japanese encephalitis virus strain JKT …); experiment: cell-based or functional assay
[5] = target: E protein of wild type JEV strain Beijing (genotype III) (Japanese encephalitis virus strain …); experiment: cell-based or functional assay
[6] = target: E protein of wild type JEV strain JE B1034/8 (genotype II) (Japanese encephalitis virus strain JE …); experiment: cell-based or functional assay
[7] = target: T1, JEV strain SA14-14-2 envelope (E) …; experiment: cell-based or functional assay; remark: listed apart in the source
[8] = target: T1, JEV strain SA14-14-2 envelope (E) …; experiment: cell-based or functional assay; remark: listed apart in the source
[9] = target: T1, JEV strain SA14-14-2 envelope (E) …
[10] = target: T1, JEV strain SA14-14-2 envelope (E) …; experiment: ELISA, virion-coated plate; initial Fab ~100 µg/ml
[11] = target: T1, JEV strain SA14-14-2 envelope (E) …; experiment: ELISA on JEV virions captured with HMAF, half-maximal binding, Fab
[12] = target: T2, recombinant JEV N-terminal 80% E protein (Japanese encephalitis virus strain …, UniProt P0DOH7 295-692); experiment: SPR, recombinant E immobilized
[13] = target: T1, JEV strain SA14-14-2 envelope (E) …; experiment: ELISA on JEV SA14-14-2 virions captured with HMAF
[14] = target: T2, recombinant JEV N-terminal 80% E protein; experiment: SPR (Biacore 3000), recombinant E immobilized, Fab in solution
[15] = target: T1, JEV strain SA14-14-2 envelope (E) …; experiment: ELISA on JEV virions, half maximum binding (FIG. 4A)
[16] = target: T1, JEV strain SA14-14-2 envelope (E) …; remark: listed apart in the source
[17] = target: T1, JEV strain SA14-14-2 envelope (E) …; experiment: ELISA on JEV virions captured with HMAF, half-maximal binding, MAb
[18] = target: T1, JEV strain SA14-14-2 envelope (E) …; remark: listed apart in the source

B1: humanized MAb B2 (antibody, V domains shown)
VH: VQLLEQSGSEVKKPGASVKVSCKASGYPFTDYAMSWVRQAPGQGLEYMGWIFTNSGNPTYAPGFAGRFVFSLDISVNTAYLHIDSLKPEDTAVYYCARGIVTPAASGDYFDSWGQGTLVTVSS
VL: ELVLTQSPSSLSASIGDRVTITCRASQHISSWLAWYQQKPGKAPKPLIYAASSLKSGVPSRFSGSGSGTDFTLTISGLQPEDFATYYCQQYENSPVTFGGGTKVEIKR
- PRNT50 [1]: 0.005 µg/mL
- PRNT50 titer [2]: 0.03 nM
- PRNT50 titer [3]: 0.02 nM
- PRNT50 titer [4]: 2 nM
- PRNT50 titer [5]: 0.02 nM
- PRNT50 titer [6]: 0.02 nM
- occupancy of accessible antibody sites on the virion for neutralization [7]: ~28%

B2: Fab B2 (Fab, V domains shown)
VH: B1 VH
VL: B1 VL
- PRNT50 titer [8]: 0.25 nM
- IC50 (read off the curve) [9]: ~5000 pM
- ELISA titer (1/log10 dilution) [10]: 4.2 log10 reciprocal dilution
- Kd [11]: 280 pM
- fold faster off-rate than Fab A3 or E3 [12]: ≥ 120 fold
- fold weaker Kd than Fab A3 or E3 [12]: ≥ 150 fold
- EC50 (read off the curve) [13]: ~200 pM
- Kd [14]: 110000 pM
- koff [14]: 0.0046 s⁻¹
- kon [14]: 42000 M⁻¹ s⁻¹
- EC50 [15]: 280 pM

B3: Fab E3 (Fab, V domains shown)
VH: EVQLLESGPGLVRPSQTLSLTCAVSGASISGPLSYWTWIRQSPGKKMEHIGSMFYSGNTYYNPSLKGRITMSVDTSRNQFSLNLNSVTVADTAVYFCARRRETELFGLPIDYWGQGILVTVSS
VL: ELTQSPATLSVSPGERATLSCRASERISSSYLSWYQQKPGQAPRLLMYGTSTRATGIPARFSGSGSGTDFTLTISSLQPEDFAVYFCQQDYNLPWTFGQGTKLEIKR
- PRNT50 titer [8]: 84.9 nM
- ELISA titer (1/log10 dilution) [10]: 4.2 log10 reciprocal dilution
- Kd [11]: 980 pM
- IC50 (read off the curve) [16]: ~7000 pM
- EC50 (read off the curve) [13]: ~1000 pM
- Kd [14]: 350 pM
- koff [14]: 3.6e-05 s⁻¹
- kon [14]: 100000 M⁻¹ s⁻¹
- EC50 [15]: 980 pM

B4: humanized MAb E3 (antibody, V domains shown)
VH: B3 VH
VL: B3 VL
- PRNT50 [1]: 0.09 µg/mL
- PRNT50 titer [2]: 0.93 nM
- PRNT50 titer [3]: 0.21 nM
- PRNT50 titer [4]: 0.36 nM
- PRNT50 titer [5]: 0.71 nM
- PRNT50 titer [6]: 0.14 nM
- occupancy of accessible antibody sites on the virion for neutralization [7]: 66%
- Kd [17]: 310 pM

B5: Fab A3 (Fab, V domains shown)
VH: EVQLLESGAEVKKPGSSVRISCKVSGTPYSSYVMNWVRQAPGQGLEWMGVFVPSLDRALYAQNFQGRLSITADTTTTYMELTSLKFEDTAVYYCATDFSVGWLRPLDRWGQGTLVTVSS
VL: ELQMTQSPSSLSASVGDRVTITCRASQGISNYLAWYQQKPGKAPKLLIYYASRLESGVPSRFSGSGSGTDYTLTISSLQPEDFATYYCQQYNSNPFTFGPGTKVDIKR
- IC50 (read off the curve) [18]: ~6000 pM
- PRNT50 titer [8]: 2.55 nM
- ELISA titer (1/log10 dilution) [10]: 4.7 log10 reciprocal dilution
- Kd [11]: 450 pM
- EC50 (read off the curve) [13]: ~500 pM
- Kd [14]: 720 pM
- koff [14]: 2.8e-05 s⁻¹
- kon [14]: 40000 M⁻¹ s⁻¹
- EC50 [15]: 450 pM

B6: humanized MAb A3 (antibody, V domains shown)
VH: B5 VH
VL: B5 VL
- PRNT50 [1]: 0.04 µg/mL
- PRNT50 titer [2]: 0.2 nM
- PRNT50 titer [3]: 0.04 nM
- PRNT50 titer [4]: 0.07 nM
- PRNT50 titer [5]: 0.2 nM
- PRNT50 titer [6]: 0.04 nM
- occupancy of accessible antibody sites on the virion for neutralization [7]: 45%
